One substance from PMC7508890 can be followed below.

The target of test [1] is recombinant hemagglutinin (HA) derived from A/Thailand/CU44/2006, wild type (influenza A virus A/Thailand/CU44/2006). The test is described as follows: SEC-MALS.
Test [2] has the same target. The test is described as follows: […]; 20 mM Tris-HCl pH 8.0, 100 mM NaCl.

For “recombinant hemagglutinin (HA) derived from A/Thailand/CU44/2006, wild type (natural protein)”, the stoichiometry N turned out to be 9 HA trimers in test [1] and 3 in test [2].
